Reference: the Immune Epitope Database (IEDB)

Tests used:
HLA-A*01:01 [1] = assay: IEDB peptide-MHC binding, purified MHC/direct/fluorescence; filed as Kd, often an IC50 or EC50 that approximates it; ≥ and ≤ were set here for values at or beyond the usual limits of such assays
HLA-A*02:01 = assay: as above
HLA-A*02:03 = assay: as above
HLA-A*02:06 = assay: as above
HLA-A*02:11 = assay: as above; details: source organism: Salmonella enterica subsp. arizonae serovar 62:z4,z23:-
HLA-A*02:12 = assay: as above
HLA-A*02:19 = assay: as above
HLA-A*03:01 = assay: as above
HLA-A*11:01 = assay: as above
HLA-A*31:01 = assay: as above
HLA-A*69:01 = assay: as above
HLA-B*07:02 = assay: as above
HLA-B*08:01 = assay: as above
HLA-B*15:01 = assay: as above
HLA-B*27:05 = assay: as above
HLA-B*40:01 = assay: as above
HLA-B*44:02 = assay: as above
HLA-B*58:01 = assay: as above
HLA-C*06:02 = assay: as above; details: source organism: Yersinia pestis Nepal516
HLA-A*29:02 [2] = assay: as above; details: source organism: Mammarenavirus machupoense
HLA-A*80:01 = assay: as above
HLA-A*01:01 [3] = assay: IEDB peptide-MHC binding, purified MHC/competitive/fluorescence; filed as Kd, often an IC50 or EC50 that approximates it; ≥ and ≤ were set here for values at or beyond the usual limits of such assays; details: source organism: Homo sapiens
HLA-A*30:01 [4] = assay: as above
HLA-B*15:42 = assay: as above; details: source organism: Mammarenavirus lassaense
HLA-B*45:06 = assay: as above; details: source organism: Mammarenavirus lassaense
HLA-B*83:01 = assay: as above; details: source organism: Mammarenavirus lassaense
HLA-A*26:01 [5] = assay: IEDB peptide-MHC binding, purified MHC/competitive/radioactivity; filed as Kd, often an IC50 or EC50 that approximates it; ≥ and ≤ were set here for values at or beyond the usual limits of such assays; details: source organism: Mammarenavirus lassaense
HLA-A*29:02 [6] = assay: as above; details: source organism: Mammarenavirus lassaense
HLA-A*30:01 [7] = assay: as above; details: source organism: Mammarenavirus lassaense
HLA-A*30:02 = assay: as above; details: source organism: Mammarenavirus lassaense
HLA-A*32:01 = assay: as above; details: source organism: Mammarenavirus lassaense
HLA-A*24:03 [8] = assay: IEDB peptide-MHC binding, purified MHC/competitive/fluorescence; filed as Kd, often an IC50 or EC50 that approximates it; ≥ and ≤ were set here for values at or beyond the usual limits of such assays; details: source organism: Encephalitozoon cuniculi GB-M1
HLA-A*23:01 = assay: IEDB peptide-MHC binding, purified MHC/direct/fluorescence; filed as Kd, often an IC50 or EC50 that approximates it; ≥ and ≤ were set here for values at or beyond the usual limits of such assays; details: source organism: Amur virus
HLA-A*24:02 = assay: as above
HLA-A*24:03 [9] = assay: as above; details: source organism: Amur virus
HLA-A*26:01 [10] = assay: as above; details: source organism: Rickettsia sibirica 246
HLA-B*08:02 = assay: as above; details: source organism: Rickettsia sibirica 246
HLA-B*46:01 = assay: as above; details: source organism: Brucella melitensis
[11] = source organism: Yersinia enterocolitica
[12] = source organism: Salmonella enterica subsp. arizonae serovar 62:z4,z23:-
[13] = source organism: Mammarenavirus lassaense
[14] = source organism: Rickettsia conorii
[15] = source organism: Brucella melitensis
[16] = source organism: Brucella ovis ATCC 25840

RIYSHIAPY was tested, and the Kd (HLA-A*01:01 [1]; [11]) was no less than 20000 nM, the Kd (HLA-A*02:01; [11]) was 1970 nM and the Kd (HLA-A*02:03; [12]) was 562 nM. For the same sequence, the Kd (HLA-A*02:06; [12]) was 221 nM, the Kd (HLA-A*02:11) was 126 nM and the Kd (HLA-A*02:12; [12]) was 475 nM. For the same sequence, the Kd (HLA-A*02:19; [12]) was no less than 20000 nM, the Kd (HLA-A*03:01; [11]) was 31.2 nM and the Kd (HLA-A*11:01; [11]) was 36.8 nM. The Kd (HLA-A*31:01; [11]) was 46.7 nM, the Kd (HLA-A*69:01; [11]) was no less than 20000 nM and the Kd (HLA-B*07:02; [11]) was no less than 20000 nM. The Kd (HLA-B*08:01; [12]) was no less than 20000 nM, the Kd (HLA-B*15:01; [11]) was 109 nM and the Kd (HLA-B*27:05; [11]) was 723 nM. The Kd (HLA-B*40:01; [11]) was no less than 20000 nM, the Kd (HLA-B*44:02; [11]) was no less than 20000 nM and the Kd (HLA-B*58:01; [11]) was 58 nM. For the same sequence, the Kd (HLA-C*06:02) was no less than 20000 nM.

ISEMLSKEY was tested, and the Kd (HLA-A*01:01 [1]; source organism: Mammarenavirus cupixiense) was 545 nM, the Kd (HLA-A*29:02 [2]) was 179 nM and the Kd (HLA-A*80:01; source organism: Mammarenavirus machupoense) was 8000 nM.

With CSDSDGLAP the Kd (HLA-A*80:01; source organism: Homo sapiens) was no less than 20000 nM, the Kd (HLA-A*01:01 [3]) was no less than 20000 nM and the Kd (HLA-A*30:01 [4]; source organism: Homo sapiens) was no less than 20000 nM.

Work on LIDGRTSFY yielded a Kd (HLA-A*01:01 [1]; [13]) of 0.9 nM, a Kd (HLA-A*80:01; [13]) of 14.8 nM and a Kd (HLA-B*15:42) of no less than 5000 nM. It also gave a Kd (HLA-B*45:06) of no less than 5000 nM, a Kd (HLA-B*83:01) of no less than 5000 nM and a Kd (HLA-A*26:01 [5]) of 14400 nM. For the same sequence, the Kd (HLA-A*29:02 [6]) was 1150 nM, the Kd (HLA-A*30:01 [7]) was no less than 51300 nM and the Kd (HLA-A*30:02) was 1210 nM. The Kd (HLA-A*32:01) was no less than 77800 nM.

RVLENTHIF gave a Kd (HLA-A*24:03 [8]) of 2.9 nM and a Kd (HLA-A*30:01 [4]; source organism: Encephalitozoon cuniculi GB-M1) of 222 nM.

ESPSSIWVF was tested, and the Kd (HLA-A*23:01) was 145 nM, the Kd (HLA-A*24:02; source organism: Amur virus) was 5.8 nM and the Kd (HLA-A*24:03 [9]) was 1220 nM. The Kd (HLA-A*30:01 [4]; source organism: Hantaan virus 76-118) was 2330 nM.

SSSGMDAYY was tested, and the Kd (HLA-A*01:01 [1]; [14]) was 69.2 nM, the Kd (HLA-A*02:01; [14]) was no less than 20000 nM and the Kd (HLA-A*03:01; [14]) was no less than 20000 nM. For the same sequence, the Kd (HLA-A*24:02; [14]) was no less than 20000 nM, the Kd (HLA-A*26:01 [10]) was 124 nM and the Kd (HLA-A*31:01; [14]) was no less than 20000 nM. It also gave a Kd (HLA-A*69:01; [14]) of no less than 20000 nM, a Kd (HLA-B*07:02; [14]) of no less than 20000 nM and a Kd (HLA-B*08:01; source organism: Rickettsia sibirica 246) of no less than 20000 nM. The Kd (HLA-B*08:02) was no less than 20000 nM, the Kd (HLA-B*15:01; [14]) was 159 nM and the Kd (HLA-B*27:05; [14]) was no less than 20000 nM. The Kd (HLA-B*40:01; [14]) was no less than 20000 nM, the Kd (HLA-B*44:02; [14]) was no less than 20000 nM and the Kd (HLA-B*58:01; [14]) was 216 nM.

Work on CTDPPLLSV yielded a Kd (HLA-A*01:01 [1]; [15]) of 6980 nM, a Kd (HLA-A*02:01; [15]) of 526 nM and a Kd (HLA-A*02:03; [16]) of 1050 nM. The Kd (HLA-A*02:06; [16]) was 23 nM, the Kd (HLA-A*02:12; [16]) was 529 nM and the Kd (HLA-A*02:19; [16]) was no less than 20000 nM. For the same sequence, the Kd (HLA-A*03:01; [15]) was no less than 20000 nM, the Kd (HLA-A*11:01; [15]) was no less than 20000 nM and the Kd (HLA-A*24:02; [15]) was no less than 20000 nM. For the same sequence, the Kd (HLA-A*31:01; [15]) was no less than 20000 nM, the Kd (HLA-B*07:02; [15]) was no less than 20000 nM and the Kd (HLA-B*15:01; [15]) was no less than 20000 nM. It also gave a Kd (HLA-B*27:05; [15]) of no less than 20000 nM, a Kd (HLA-B*40:01; [15]) of no less than 20000 nM and a Kd (HLA-B*44:02; [15]) of no less than 20000 nM. It also gave a Kd (HLA-B*46:01) of no less than 20000 nM and a Kd (HLA-B*58:01; [15]) of no less than 20000 nM.
